The values below come from patent US8906844B2 (SYNTONIX PHARMACEUTICALS, dated 2014).

In assay [1] the target is T1, soluble human FcRn (shFcRn) (human, UniProt P55899 24-297; P61769 21-119, biotinylated with Sulfo-NHS-LC-Biotin in the ELISA; amine-coupled to a CM5 chip in SPR).
T1 construct: also called biotinylated shFcRn
As to the kind of experiment: SPR, pH 7.4. As for the experimental part:
(§1) The following steps were performed to cross-link soluble human or cynomolgus FcRn to the dextran surface of a CM5 sensor chip (Biacore AB, Uppsala, Sweden) by an amine coupling reaction involving 1-ethyl-(3-dimethylaminopropyl)-carbodiimide hydrochloride (EDC) (Biacore AB, Uppsala, Sweden) and N-hydroxysuccinimide (NHS) (Biacore AB, Uppsala, Sweden) as recommended by Biacore (BIAapplications Handbook, version AB, section 4.2, Biacore AB, Uppsala, Sweden). The FcRn protein was diluted in 50 mM sodium acetate, pH 4.5 (Biacore AB, Uppsala, Sweden) to a concentration of 10 to 30 µg/ml and used to coat one flow cell on the sensor chip. Residual sites on the FcRn flow cell were blocked with 1 M ethanolamine hydrochloride pH 8.5 (Biacore AB, Uppsala, Sweden). A control flow cell was blocked with ethanolamine for reference subtraction. For analysis of the monomeric peptides, FcRn was coated to a final density of 4000-5000 response units (RU). For analysis of the peptide dimers, FcRn was coated to a density of 2000-2500 RU. All SPR measurements were performed using a BIACORE 3000 Instrument (Biacore AB Uppsala, Sweden). For measurements done at either pH 6 or pH 7.4, experiments were performed in 50 mM phosphate, 100 mM sodium chloride, 0.01% surfactant P20 (Biacore AB, Uppsala, Sweden).
(§2) A. Representative Procedure for the Determination of Binding Constant of Monomeric Peptides Ten 2-fold dilutions of the peptide were injected over the FcRn-CM5 chip at a rate of 20 µl/min for 2 min. The peptide was dissociated from the chip for 2.5 minutes with buffer. Any remaining peptide was removed from the chip with a 30 second injection of HBS-P buffer (Biacore AB, Uppsala, Sweden) at a rate of 30 µl/min. Sensorgrams were generated and analyzed using BiaEval software version 3.1 (Biacore AB, Uppsala, Sweden). The equilibrium RU observed for each injection was plotted against concentration. The equilibrium K_D values were derived by analysis of the plots using the steady state affinity model included in the BiaEval software.

Assay [2] addresses T1, soluble human FcRn (shFcRn). Put plainly: competition ELISA vs human IgG. On the procedure:
(§3) The wells were coated with 100 μl/well of 1 μg/ml biotinylated-shFcRn in Buffer A. The plate was sealed and incubated at 37° C. for 2 hours. Afterwards, the plate was washed with 200 μl/well of Buffer B (Buffer B: 100 mM MES pH 6, 150 mM NaCl, 0.5% BSA IgG-free (Jackson ImmunoResearch, West Grove, Pa.), 0.05% Tween-20). […] To allow for mixing, the plate was rocked for 2 minutes, sealed and incubated at 37° C. for 2 hours. […] The plate was covered, incubated for 30 minutes at room temperature and washed 4 times with 200 μl/well of ice-cold buffer B. SureBlue TMB substrate solution (100 μl/well, KPL, Gaithersburg, Md.) was added and the plate was allowed to incubate at room temperature until color developed, which took 5 to 10 minutes. Once color developed, 100 μl/well of TMB stop solution (KPL, Gaithersburg, Md.) was added and the absorbance was measured at 450 nm.
(ELISA stands for enzyme-linked immunosorbent assay.)

Assay [3] has the same target. As to the kind of experiment: SPR, pH 6. As for the experimental part: as §1, §2
Assay [4] has the same target. Put plainly: SPR, pH 6. On the procedure: as §1, §2
The source holds these as a separate data set.

For assay [5] the target is unchanged. Put plainly: competition ELISA vs human IgG. As for the experimental part:
as §3
This is another data set of the same source.

Assay [6] has the same target. Put plainly: SPR, pH 7.4. On the procedure:
as §1, with “All SPR measurements were performed using a BIACORE 3000 Instrument (Biacore AB Uppsala, Sweden). For measurements done at either pH 6 or pH 7.4, experiments were performed in 50 mM phosphate, 100 mM sodium chloride, 0.01% surfactant P20 (Biacore AB, Uppsala, Sweden).” left out
A. Representative Procedure for the Determination of Binding Constant of Monomeric Peptides Ten 2-fold dilutions of the peptide were injected over the FcRn-CM5 chip at a rate of 20 µl/min for 2 min. […] Sensorgrams were generated and analyzed using BiaEval software version 3.1 (Biacore AB, Uppsala, Sweden). […]
The source holds these as a separate data set. (In general: SPR reads the build-up and loss of mass on a sensor chip optically.)

The target is the same in assay [7]. As to the kind of experiment: SPR, pH 7.4.

Where two headings read alike, the source gives them in different places. Positions of bridges follow the written chain, without caps; N, C: chain ends. Non-standard residues stand in square brackets, D forms with d. No end group written: not given here. Pen = CC(C)(S)[C@H](N)C(=O)O; NMeA = CN[C@@H](C)C(=O)O; Sar = CNCC(=O)O

T1 sequence (P55899 24-297 limits assumed, chain 1 of 2): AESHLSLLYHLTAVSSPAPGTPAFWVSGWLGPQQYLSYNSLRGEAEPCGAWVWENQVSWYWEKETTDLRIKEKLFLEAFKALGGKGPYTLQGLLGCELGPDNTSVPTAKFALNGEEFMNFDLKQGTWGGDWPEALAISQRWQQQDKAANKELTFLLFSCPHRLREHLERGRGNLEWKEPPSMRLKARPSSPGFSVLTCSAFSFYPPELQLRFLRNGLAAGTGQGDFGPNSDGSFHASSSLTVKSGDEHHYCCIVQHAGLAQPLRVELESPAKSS
T1 sequence (P61769 21-119 limits assumed, chain 2 of 2): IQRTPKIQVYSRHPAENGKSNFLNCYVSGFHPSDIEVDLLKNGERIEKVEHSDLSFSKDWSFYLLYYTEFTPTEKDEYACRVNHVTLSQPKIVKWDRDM

B1: Peptide No. 146 (peptide)
peptide: RFXTGHFGGXYPCNGP
modifications: Pen3; NMeLeu10; disulfide; C-terminal amide
The term Kd denotes the concentration at which binding is half-saturated. Higher therefore signals weaker binding. In general, IC50 refers to the concentration at which inhibition is half-maximal. A low value points to inhibition by little substance. In the case of B1, the Kd in assay [1] turned out to be 0.28 µM; in assay [3], 0.059 µM. In addition, in assay [2], the IC50 worked out at 2.1 µM.

B2: Peptide No. 188 (peptide)
peptide: QRFXTGHFXXXYPCNGP
modifications: Pen4; D-Ala9; Sar10; NMeLeu11; disulfide; C-terminal amide
Molecule B2 registered a Kd in assay [4] of 0.73 µM. The IC50 in assay [5] is 6.5 µM.

B3: Peptide No. 41 (peptide)
peptide: QRF[Pen]TGHFG[dR]LYPCNGP-NH2
modifications: disulfide 4-14; N-terminus assumed
SMILES: CC(C)C[C@@H]1NC(=O)[C@@H](CCCNC(=N)N)NC(=O)CNC(=O)[C@H](Cc2ccccc2)NC(=O)[C@H](Cc2c[nH]cn2)NC(=O)CNC(=O)[C@H]([C@@H](C)O)NC(=O)[C@@H](NC(=O)[C@H](Cc2ccccc2)NC(=O)[C@H](CCCNC(=N)N)NC(=O)[C@@H](N)CCC(N)=O)C(C)(C)SSC[C@@H](C(=O)N[C@@H](CC(N)=O)C(=O)NCC(=O)N2CCC[C@H]2C(N)=O)NC(=O)[C@@H]2CCCN2C(=O)[C@H](Cc2ccc(O)cc2)NC1=O
In the case of B3, the Kd in assay [1] amounted to 8.8 µM; in assay [3], 0.83 µM. In addition, the IC50 in assay [2] amounted to 8.1 µM.

B4: Peptide No. 213 (peptide)
peptide: QRF[Pen][NMeA]GHFGGLYPCNGP-NH2
modifications: disulfide 4-14; N-terminus assumed
SMILES: CC(C)C[C@@H]1NC(=O)CNC(=O)CNC(=O)[C@H](Cc2ccccc2)NC(=O)[C@H](Cc2c[nH]cn2)NC(=O)CNC(=O)[C@H](C)N(C)C(=O)[C@@H](NC(=O)[C@H](Cc2ccccc2)NC(=O)[C@H](CCCNC(=N)N)NC(=O)[C@@H](N)CCC(N)=O)C(C)(C)SSC[C@@H](C(=O)N[C@@H](CC(N)=O)C(=O)NCC(=O)N2CCC[C@H]2C(N)=O)NC(=O)[C@@H]2CCCN2C(=O)[C@H](Cc2ccc(O)cc2)NC1=O
As to B4, the IC50 in assay [2] amounted to 5.5 µM. The molecule also came in with a dissociation constant Kd in assay [3] of 1 µM.

B5: Peptide No. 42 (peptide)
peptide: QRFXTGHFGXLYPCNGP
modifications: Pen4; D-His10; disulfide; C-terminal amide
B5: the figures for the Kd in assay [1] and in assay [3] were 20 µM and 2 µM, respectively.

B6: Peptide No. 147 (peptide)
peptide: RF[Pen]TGHFG[Sar]YPCNGP-NH2
modifications: disulfide 3-12; N-terminus assumed
SMILES: C[C@@H](O)[C@@H]1NC(=O)[C@@H](NC(=O)[C@H](Cc2ccccc2)NC(=O)[C@@H](N)CCCNC(=N)N)C(C)(C)SSC[C@@H](C(=O)N[C@@H](CC(N)=O)C(=O)NCC(=O)N2CCC[C@H]2C(N)=O)NC(=O)[C@@H]2CCCN2C(=O)[C@H](Cc2ccc(O)cc2)NC(=O)CN(C)C(=O)CNC(=O)[C@H](Cc2ccccc2)NC(=O)[C@H](Cc2c[nH]cn2)NC(=O)CNC1=O
notes: printed RF-Pen-TGHFG-Sar-YPCNGP (no Leu after Sar)
For B6, the figures for the Kd in assay [1] and in assay [3] were 0.35 µM and 0.058 µM, respectively. The molecule also yielded an IC50 in assay [2] of 1 µM.

B7: Peptide No. 23 (peptide)
peptide: QRFCTGHFGXLYPCNGP
modifications: D-Ala10; disulfide; C-terminal amide
B7 returned a Kd in assay [1] of 184 µM.

B8: Peptide No. 187 (peptide)
peptide: QRFXTGHFGXXYPCNGP
modifications: Pen4; Sar10; NMeLeu11; disulfide; C-terminal amide
Take B8: the Kd worked out at 0.23 µM in assay [6], 0.23 µM in assay [1], 0.046 µM in assay [4] and 0.046 µM in assay [3]. The IC50 in assay [2] and in assay [5] was 0.42 µM in each case.

B9: Peptide No. 157 (peptide)
peptide: QRFVTGHFGXLYPANGP
modifications: D-Pro10; unbridged; C-terminal amide
Molecule B9 showed an IC50 in assay [2] of 195 µM. The molecule also showed a Kd in assay [3] of 16 µM.

B10: Peptide No. 177 (peptide)
peptide: QRFVTGHFGXWYPANGP
modifications: D-Pro10; unbridged; C-terminal amide
Turning to B10, the Kd turned out to be 96 µM in assay [1] and 5.8 µM in assay [3]. In addition, the IC50 in assay [2] turned out to be 52 µM.

B11: Peptide No. 190 (peptide)
peptide: QRFVTGHFGXWYPINGP
modifications: D-Pro10; unbridged; C-terminal amide
As to B11, in assay [2], the IC50 was found to be 49 µM. In assay [3], this molecule had a Kd of 4.2 µM.

B12: Peptide No. 238 (peptide)
peptide: QRFXTGHFGXWYPCNGP
modifications: Pen4; Sar10; disulfide; C-terminal amide
In assay [2], B12 displayed a half-inhibitory concentration (IC50) of 1 µM. Binding in assay [3] was characterised by a dissociation constant (Kd) of 0.068 µM.

B13: Peptide No. 48 (peptide)
peptide: QRFXTGHFXGLYPCNGP
modifications: Pen4; D-Pro9; disulfide; C-terminal amide
On to B13, for which the Kd stood at 21 µM in assay [1] and 0.79 µM in assay [3]. The molecule further registered an IC50 in assay [2] of 5 µM.

B14: Peptide No. 43 (peptide)
peptide: QRFXTGHFGXLYPCNGP
modifications: Pen4; D-Ile10; disulfide; C-terminal amide
Turning to B14, the Kd in assay [1] stood at 41 µM; in assay [3], 2.2 µM. The IC50 in assay [2] is 18 µM.

B15: Peptide No. 22 (peptide)
peptide: QRFCTGHFXGLYPCNGP
modifications: D-Ala9; disulfide; C-terminal amide
In turn, B15 had a Kd in assay [1] of 137 µM. In addition, the IC50 in assay [2] worked out at 48 µM.

B16: Peptide No. 47 (peptide)
peptide: QRFXTGHFXGLYPCNGP
modifications: Pen4; D-Asp9; disulfide; C-terminal amide
Consider B16, for which the Kd in assay [1] is 4.9 µM; in assay [3], 0.58 µM.

B17: Peptide No. 239 (peptide)
peptide: RFXTGHFXXYPC
modifications: Pen3; X8 = 3(R)-amino-2-oxo-1-azepine acetic acid; NMeLeu9; disulfide; C-terminal amide
Turning to B17, the IC50 in assay [2] came to 0.62 µM. Besides, the dissociation constant (Kd) in assay [3] was determined as 0.044 µM.

B18: Peptide No. 255 (peptide)
peptide: RFXTGKFGXXYPC
modifications: Pen3; Sar9; NMeLeu10; disulfide; C-terminal amide
B18 had an IC50 in assay [2] of 40 µM. Moreover, the Kd in assay [7] was 1.1 µM; in assay [3], 1.3 µM.

B19: Peptide No. 265 (peptide)
peptide: RFXTGFFGXXYPC
modifications: Pen3; Sar9; NMeLeu10; disulfide; C-terminal amide
As to B19, the Kd amounted to 4.2 µM in assay [7] and 3.3 µM in assay [3].

B20: Peptide No. 256 (peptide)
peptide: RFXTGRFGXXYPC
modifications: Pen3; Sar9; NMeLeu10; disulfide; C-terminal amide
On to B20, for which the IC50 in assay [2] came to 5.5 µM. Further, the Kd in assay [7] and in assay [3] was 0.5 µM each time.

B21: Peptide No. 24 (peptide)
peptide: QRFCTGHFXXLYPCNGP
modifications: D-Ala9; D-Ala10; disulfide; C-terminal amide
As for B21, the Kd in assay [1] is over 250 µM; in assay [3], 22 µM. The molecule further registered an IC50 in assay [2] of 69 µM.

B22: Peptide No. 246 (peptide)
peptide: RFVTGHFG[dP]WYPA-NH2
modifications: N-terminus assumed
SMILES: CC(C)[C@H](NC(=O)[C@H](Cc1ccccc1)NC(=O)[C@@H](N)CCCNC(=N)N)C(=O)N[C@H](C(=O)NCC(=O)N[C@@H](Cc1c[nH]cn1)C(=O)N[C@@H](Cc1ccccc1)C(=O)NCC(=O)N1CCC[C@@H]1C(=O)N[C@@H](Cc1c[nH]c2ccccc12)C(=O)N[C@@H](Cc1ccc(O)cc1)C(=O)N1CCC[C@H]1C(=O)N[C@@H](C)C(N)=O)[C@@H](C)O
For the molecule B22, the IC50 in assay [2] worked out at 60 µM. Besides, the Kd in assay [3] was determined as 3.6 µM.
